Consider 142 substances from the supplement of paper PMC12042874.

± gives the uncertainty stated by the source.

A short description of the data set: amyloid nucleation score (Sup35N fusion, yeast selection) (log enrichment); library NNK1; higher = more nucleation; inactive = no reads after selection. In short, it runs like this: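 The nucleation score is a DiMSum log enrichment of output over input reads, centred on the mode score of non-aggregating sequences. Sequences under 100 input reads were excluded, and reads came from Illumina sequencing of plasmid inserts. Psi-negative yeast expressing Sup35N fused to peptides of 20 random codons were induced with 100 μM copper sulfate for 24 hours and grown 7 days at 30°C on medium lacking adenine and uracil. Random libraries had three technical output replicates.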

As for KNRQLTRLFYTWELRTGTVG, the amyloid nucleation score was -0.227 ± 0.61.

Regarding GSICSVVVTMLVFSNKVTSL, the amyloid nucleation score is -0.353 ± 0.6.

Regarding LRDTRAWVLN, the amyloid nucleation score was -0.295 ± 0.43.

As to TQEVLLFPGGCYNPFAFGWS, the amyloid nucleation score was -0.647 ± 0.75.

Regarding GYDRSGT, the amyloid nucleation score was found to be 0.135 ± 1.2.

For FYGFRCGYLDVSL, the amyloid nucleation score is -0.648 ± 0.33.

LMRYALSIPRRAYVVRRLVM gave an amyloid nucleation score of 0.444 ± 1.2.

MKSALKALTEHSPQSYDWCR came in with an amyloid nucleation score of -0.4 ± 0.61.

With QAKGLALLCV, the amyloid nucleation score is -2.17 ± 2.7.

Take ALMNNGWYILSNFPYCMVIY: the amyloid nucleation score came to 5.4 ± 0.064.

For the substance VSTSLGHLVDWGKSM, the amyloid nucleation score result is “inactive”.

Consider NWSFEWWTSIAMEQ, for which the amyloid nucleation score was -0.222 ± 0.42.

For RDWKSFSVCVFLIFIACNTG, the amyloid nucleation score is -0.605 ± 0.4.

In turn, VALAIIRPY returned an amyloid nucleation score of -0.431 ± 0.27.

SCNHKNSRSHLALQS had an amyloid nucleation score of 1.6 ± 0.44.

On to GIYCLYFDILEVFLYTTTLS, for which the amyloid nucleation score is 0.27 ± 0.42.

In turn, SYFRREDCFVFKVITLFIMS showed an amyloid nucleation score of -0.675 ± 0.46.

The substance RRRYGRWMLCCCVVWV displayed an amyloid nucleation score of -0.147 ± 0.37.

In the case of SFEDGGLMFMAPDIRGTGTR, the amyloid nucleation score is 0.884 ± 0.79.

For the substance KDLLYKSIRW, the amyloid nucleation score turned out to be 1.03 ± 0.27.

Consider GMTCSQGSEWMLERGNRTEV, for which the amyloid nucleation score was -0.294 ± 0.66.

Regarding EIPLRAGWPPWCGSDICL, the amyloid nucleation score stood at 0.639 ± 0.55.

As for ASGLMLFIMPFRWGWNSVFT, the amyloid nucleation score was 0.683 ± 0.42.

Regarding VHRIYKCALRVSRADSLIVT, the amyloid nucleation score result was “inactive”.

As to VVRTH, the amyloid nucleation score entry is “inactive”.

Substance RLHMRRRPFVNTHVS returned an amyloid nucleation score of 0.54 ± 0.42.

For YDPPNCSAKSNQAGLKCTGA, the amyloid nucleation score was 2.22 ± 0.19.

MHWLRGVRS returned an amyloid nucleation score of 0.082 ± 0.47.

In the case of SGTQKNRCTSLMQC, the amyloid nucleation score was 0.709 ± 0.53.

Regarding LSMPMGNLEPL, the amyloid nucleation score is -0.277 ± 0.19.

SPEGWYFRTTWLVA: the amyloid nucleation score entry was “inactive”.

For the substance RSYVVSPVNY, the amyloid nucleation score was -1.18 ± 0.76.

As to ICSIITPRPGFPTVLRSMKK, the amyloid nucleation score amounted to 0.846 ± 0.81.

In the case of GFGPS, the amyloid nucleation score is -0.275 ± 0.38.

As to RVTPISCKYVLLTPMRLKNR, the amyloid nucleation score is 2.35 ± 0.3.

The substance NPLHTMFTLYEIRQWRLF gave an amyloid nucleation score of -0.048 ± 0.3.

For PSLYACGQKPRSEALDARWL, the amyloid nucleation score result is “inactive”.

The substance YWWRWSVSI had an amyloid nucleation score of 0.386 ± 0.33.

ILLMFYRCSKDILLIRSTDF returned an amyloid nucleation score of 0.059 ± 0.27.

Consider LSDWWKTSMFGYPVYSVVAR, for which the amyloid nucleation score came out at 0.62 ± 0.36.

Take VERFDLHLSD: the amyloid nucleation score was determined as 1.06 ± 0.6.

In turn, RLASMREHLVWYRRGFRVCC gave an amyloid nucleation score of 0.725 ± 0.58.

YLFPDVTRICCMGWSFTLLS: the amyloid nucleation score came to 5.27 ± 0.053.

As for THDAFF, the amyloid nucleation score was determined as 0.642 ± 0.48.

Consider SQSRRVSGQQDGPQMYSNGP, for which the amyloid nucleation score is -0.232 ± 0.36.

The substance SDSLFPTPLDFKMKIWGIMV displayed an amyloid nucleation score of 0.062 ± 0.85.

The substance LLTTIGQTRMVIHKGIERNE returned an amyloid nucleation score of 1.77 ± 0.14.

On to SYLQGELTDDSMTSFFKGM, for which the amyloid nucleation score was -1.3 ± 1.4.

In the case of FIASGPVHLRLYAKFNNFHL, the amyloid nucleation score was 8.643 ± 0.06.

The substance KASMMPSDSSCLI displayed an amyloid nucleation score of 0.911 ± 0.34.

Take RACGYYCKSLCPGCKTCLSR: the amyloid nucleation score stood at 0.005 ± 1.7.

The substance WTTSVSL yielded an amyloid nucleation score of -0.346 ± 0.84.

On to CSGNI, for which the amyloid nucleation score is -1.32 ± 1.7.

The substance FHMAKRLYC displayed an amyloid nucleation score of 0.276 ± 0.46.

On to NVMVTFFGCIRKWRSNWSQE, for which the amyloid nucleation score is -0.016 ± 0.48.

Regarding SMFLLRPYRVCFCSRRFVTV, the amyloid nucleation score amounted to 0.253 ± 0.77.

On to EFRKEG, for which the amyloid nucleation score is 1.02 ± 0.52.

With SYLYTVNLFDFYCCRLRGST, the amyloid nucleation score amounted to 3.99 ± 0.1.

In the case of IMPDNDWKSCILIFSRSILF, the amyloid nucleation score was 2.59 ± 0.15.

Substance LWFINVLNK showed an amyloid nucleation score of 5.103 ± 0.049.

Consider NSYTCNMFDLVFCAYTIASI, for which the amyloid nucleation score is 4.95 ± 0.057.

As to WVSPLVYDWYLT, the amyloid nucleation score was -0.929 ± 2.7.

SRWKLGGGDL returned an amyloid nucleation score of 0.006 ± 0.64.

For CFGASNSLLFVDSSAWGSSG, the amyloid nucleation score was -0.242 ± 0.5.

NWNSR yielded an amyloid nucleation score of 0.197 ± 0.64.

The substance SGSDVILAYTPTPPGDSPVW yielded an amyloid nucleation score of 0.645 ± 0.61.

The substance ELSLKVFPTARIKRCMFEPM had an amyloid nucleation score of 0.838 ± 0.45.

In the case of DSDLRLNLCELTFVPWRRSG, the amyloid nucleation score was found to be 2.86 ± 0.19.

The substance TSMLDLN displayed an amyloid nucleation score of -1.69 ± 1.8.

In turn, SNCVIVSQLKITDA returned an amyloid nucleation score of -0.184 ± 0.44.

For the substance SRASKYMYVWVVLITFHCLR, the amyloid nucleation score result was “inactive”.

As for DNGGSAVQEDQVLAWSTGEQ, the amyloid nucleation score was 0.874 ± 0.23.

CRTVAHFRP had an amyloid nucleation score of 0.481 ± 0.61.

The substance WGCDLEAALY yielded an amyloid nucleation score of 0.016 ± 1.7.

The substance RCGLWV displayed an amyloid nucleation score of -0.217 ± 0.78.

For the substance CDNLRCRGLGDWCAWQPLTS, the amyloid nucleation score was 0.335 ± 0.65.

LRKPKIYVTNRPTQGYGSTA displayed an amyloid nucleation score of 0.169 ± 0.55.

VCCYILAYNMFGVLAEWLCG: the amyloid nucleation score worked out at 3.66 ± 0.069.

As for FSRYLPKLNSLAKDSIPVGR, the amyloid nucleation score result was “inactive”.

The substance RSQKLGHIGRDTLQWGLYCS gave an amyloid nucleation score of -0.024 ± 0.38.

Turning to TRLHRSQYSLSQSYNRTRKM, the amyloid nucleation score amounted to 0.39 ± 1.2.

RLLRPFGWLANSRLTTVWFH showed an amyloid nucleation score of -0.122 ± 0.68.

For the substance SDTRYGLFVNWRFWDRGSGW, the amyloid nucleation score stood at 0.238 ± 0.34.

For the substance GKLTYLPRVKNLHLHFSFEN, the amyloid nucleation score was -0.169 ± 0.51.

In the case of ILSRVCVRGCIHLPSRMCRS, the amyloid nucleation score result is “inactive”.

GCMVFS: the amyloid nucleation score stood at 0.352 ± 0.76.

Take FFVFSRAHCAQSSLNKKYL: the amyloid nucleation score stood at 0.888 ± 0.3.

With CHYFMNTLIV, the amyloid nucleation score entry was “inactive”.

As for DGFCCGIYYILSEMTGHSRS, the amyloid nucleation score was found to be 1.41 ± 0.65.

TLCREEVETRLEATFCGCTN came in with an amyloid nucleation score of 0.979 ± 0.84.

Turning to VLTTS, the amyloid nucleation score is -0.086 ± 0.26.

Take RSMYSQCVLIMGAPTRISGL: the amyloid nucleation score stood at 6.295 ± 0.054.

In the case of NIANSWYW, the amyloid nucleation score is -0.537 ± 1.9.

In turn, DKVLQLMYMGLDSGVLPSKD came in with an amyloid nucleation score of -0.789 ± 1.

LWVNTDSSLECHRWLRVIV: the amyloid nucleation score was 1.2 ± 0.37.

In turn, SQRTWCLLGIGSTITRIHFG gave an amyloid nucleation score of 2.74 ± 0.23.

RSSLNTCWMGSYNVLGTRTG: the amyloid nucleation score came out at 4.39 ± 0.11.

Substance VYGVPWYGLSYLFCTSVDID came in with an amyloid nucleation score of 6.252 ± 0.059.

With DLVYC, the amyloid nucleation score is -0.307 ± 0.52.

Substance TAVIKLSCLSLFMNSIMLVY had an amyloid nucleation score of 2.59 ± 0.12.

As for VNGTG, the amyloid nucleation score is -0.252 ± 0.97.

In turn, GSGSAPCCTIAFMMLFGTEG displayed an amyloid nucleation score of -0.057 ± 0.81.

For DFRWWYLFC, the amyloid nucleation score amounted to 1.11 ± 0.26.

As to CVARIDCEWIKPLSLHCSCT, the amyloid nucleation score is -0.499 ± 1.3.

As for SYYHRFSRIGMRSLGQEQCY, the amyloid nucleation score entry was “inactive”.

The substance ICNQCNNSGTQLYCIKLYMR returned an amyloid nucleation score of 6.099 ± 0.045.

As for FCRFQDR, the amyloid nucleation score was -0.785 ± 0.64.

For NGGYYAMGVGFLYVFALCHD, the amyloid nucleation score was found to be 2.05 ± 0.27.

LKSSNVPTRNVMRYMPSAFE had an amyloid nucleation score of -0.292 ± 0.59.

Take MSIQCTSALGPL: the amyloid nucleation score worked out at 2.13 ± 0.35.

On to IYSRVGWETSWDWSVSVWGF, for which the amyloid nucleation score stood at 0.031 ± 0.37.

With VCNIPNFCQKQCLSFTTIRY, the amyloid nucleation score was determined as 2 ± 0.12.

VSTNSDSLLGNCRKNPVHPS registered an amyloid nucleation score of 1.03 ± 0.79.

For RRGVYSKVFAENHVLCMLSL, the amyloid nucleation score is 4.01 ± 0.067.

The substance SFVNTNHRMRRCYTTENNPS registered an amyloid nucleation score of -0.796 ± 0.68.

The substance SVSILP came in with an amyloid nucleation score of -0.34 ± 0.53.

As to LWDIFFRSLSVLAYNIKMFS, the amyloid nucleation score is -0.552 ± 1.

HLGAYYTGI registered an amyloid nucleation score of 0.984 ± 0.36.

CLRLELDKF returned an amyloid nucleation score of 3.34 ± 0.12.

WYKMSRRGQ: the amyloid nucleation score turned out to be 0.857 ± 1.

Take KLILK: the amyloid nucleation score was -0.378 ± 0.51.

The substance QCMARVSQFFWFMLTWK gave an amyloid nucleation score of 0.748 ± 0.27.

Substance LFHLPSVYIWFYAT showed an amyloid nucleation score of 6.723 ± 0.053.

With DLKFHLLIWVCRIGSDKNVK, the amyloid nucleation score turned out to be 0.071 ± 1.2.

As for GGLWYTSTYSIYG, the amyloid nucleation score was 2.42 ± 0.48.

Consider CVAGLVDGKRKNVIRKWFWN, for which the amyloid nucleation score stood at 0.049 ± 0.44.

Substance IAVSFSVVL yielded an amyloid nucleation score of 5.49 ± 0.056.

Take HLWPVVSKGWDGFRCVSQVF: the amyloid nucleation score was -1.25 ± 2.4.

As to LASSIFASFRTFVQPSVSGY, the amyloid nucleation score was -0.146 ± 0.48.

TSGWCSRLQIIGLYLNVLVC displayed an amyloid nucleation score of 5.47 ± 0.06.

With TYYVRCLGLLGLNPTFRSPR, the amyloid nucleation score was 0.365 ± 0.36.

Substance LLRWFALGTYVSGWRWDERR yielded an amyloid nucleation score of -0.179 ± 0.32.

Consider LPRNYTLLMPAVYIYVLVSW, for which the amyloid nucleation score entry was “inactive”.

For the substance CLVKTSSVSTIWLVSCNTRT, the amyloid nucleation score was 0.648 ± 0.55.

As for IGVSVTPLLLKNKRPVTDVM, the amyloid nucleation score worked out at 1.07 ± 0.84.

With SRTTAVSYLGNGFVI, the amyloid nucleation score was -0.573 ± 0.42.

Consider KRDFVSRLDESPN, for which the amyloid nucleation score is -0.873 ± 1.1.

NTRAPFLKHLNYFAYTTFII showed an amyloid nucleation score of 0.123 ± 0.22.

In the case of TRVASQDARTDP, the amyloid nucleation score is -0.034 ± 0.49.

Turning to SSDKLCAYFVREIWTQGAGW, the amyloid nucleation score came out at 0.507 ± 0.54.

In turn, RARWDPFLMCYLTVVWTSFV displayed an amyloid nucleation score of -0.12 ± 0.29.

FEYRRNLKCVSFFWSVGINR returned an amyloid nucleation score of -0.436 ± 0.4.
